{
  "source": "the supplement of paper PMC12636428",
  "test_system": "Saccharomyces cerevisiae",
  "test": "transcriptional activation domain activity (GFP:mCherry ratio, weighted mean of sorted bins, harmonized to initial dataset scale) (arbitrary fluorescence ratio units); higher = stronger transcriptional activation",
  "settings": "beta-estradiol 1 µM; induction time 4 h",
  "experimental": "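53-aa protein tiles (fungal proteins plus yeast TF control tiles) fused C-terminally to a DBD-estrogen-binding domain-mCherry synthetic TF, integrated in S. cerevisiae (URA3 locus) with a GFP reporter. Cells were induced with 1 uM beta-estradiol for 4 h at 30 C, FACS-sorted into 8 bins by GFP:mCherry ratio and barcodes sequenced. Activity is the read-weighted mean bin fluorescence (GFP:mCherry), averaged over barcodes (median 12); tiles under 50 reads were discarded. New active-learning values were harmonized by linear fit onto the scale of the initial (Hummel et al.) dataset. The assay saturates at low and high signal.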",
  "data": [
    {"sequence": "TGAPIRLVAEKAEEQEQDQEGEAPAQDQAQDQEQTQDQGQARAQAGTKAQATK", "values": [
      {"measurement": "transcriptional activation domain activity", "value": 8780}
    ]},
    {"sequence": "MEYLIGHMEIYSVHFLHFCFFLRFLIFFFPLFFFFSYFSFHSYIYTFFFLEII", "values": [
      {"measurement": "transcriptional activation domain activity", "value": 31800}
    ]},
    {"sequence": "MSLGELAVLWVKRARHLGQSLLRVVLVSYAVDLPANCVALLRTGIRVLMLNMI", "values": [
      {"measurement": "transcriptional activation domain activity", "value": 37300}
    ]},
    {"sequence": "VRVLNQLKLLLYCTLLSPVYAFKPYRNLYYTFLRKNLLGVVGGYNCAGHNLAI", "values": [
      {"measurement": "transcriptional activation domain activity", "value": 55500}
    ]},
    {"sequence": "IENFLSPSFLEFIPHLANEYGFDYELVTYKWPTWLIHQKEKQRLIWGYKILFL", "values": [
      {"measurement": "transcriptional activation domain activity", "value": 56800}
    ]},
    {"sequence": "SFVRDVGFFIVSASFSLVFLWDGKLYFWECVTMVGFYVFYVIFVMAWHWWLGR", "values": [
      {"measurement": "transcriptional activation domain activity", "value": 43100}
    ]},
    {"sequence": "EPRQTGDSRSQSSGNTGENEEDIAFASGLNGGTFDSMLEALPDDLYFTDFVSP", "values": [
      {"measurement": "transcriptional activation domain activity", "value": 88800}
    ]},
    {"sequence": "CGLCALVYHSLRFQLQSNMDVLLFRYNGSYKMVVVAATTKHLLLEDIKIKLLC", "values": [
      {"measurement": "transcriptional activation domain activity", "value": 45700}
    ]},
    {"sequence": "AYNALIFALVVCICTFGCCAYIFVSSLFIHKLYNKFIILAAHIWMIIFWLVDL", "values": [
      {"measurement": "transcriptional activation domain activity", "value": 62400}
    ]},
    {"sequence": "VDADTASSVSGMTGGRSARWREDVMELCLACVAVGCVKDVGAVNNYHQTGELR", "values": [
      {"measurement": "transcriptional activation domain activity", "value": 42700}
    ]},
    {"sequence": "AADGSPAPRPNAICIHEVDQGIQWKHTNHRTGKAVVVRKRQLVLQQIITVANY", "values": [
      {"measurement": "transcriptional activation domain activity", "value": 44500}
    ]},
    {"sequence": "MMMGTIVKSFFLFTFTFSIFFFYFFPRVLFTPFFFYILDLSLFFIVVLIFFSF", "values": [
      {"measurement": "transcriptional activation domain activity", "value": 54300}
    ]},
    {"sequence": "RNVYLSRFWYLSFYSGNQLRRDLNVIVGVGKNWNLPSWWAPILRYIAAPILSI", "values": [
      {"measurement": "transcriptional activation domain activity", "value": 75600}
    ]},
    {"sequence": "FQPAVATPTVSIGLIYLIIMAFFSFSFFLPIHMKYIQPQGHPPLHFWQLIIWR", "values": [
      {"measurement": "transcriptional activation domain activity", "value": 68900}
    ]},
    {"sequence": "MGGGVYVCRSGAVYLFWVLLFYGLMFLTVDVITYLLAYLTLPMYLFFLLLVSF", "values": [
      {"measurement": "transcriptional activation domain activity", "value": 39200}
    ]},
    {"sequence": "MGVLLVDFLTHWILFLFCSWFMLFSFGRFFGFSGSLLVRFLPDSDLLMFLVLL", "values": [
      {"measurement": "transcriptional activation domain activity", "value": 70600}
    ]},
    {"sequence": "FSLSLHICFIFSRLIMLHCIFSLLKMIPFCAKFFCFFLFLFLFSPFLLYILFV", "values": [
      {"measurement": "transcriptional activation domain activity", "value": 54000}
    ]},
    {"sequence": "LQAAAALESNTADGEDTNMETEEDKSGADGRSVYVGNVGYRFAVLLASNQVDY", "values": [
      {"measurement": "transcriptional activation domain activity", "value": 36600}
    ]},
    {"sequence": "DEEGRRALPRRCVLVMGSEREGVPGPVLAECDGCVEVRQVGVTRSLNVQTAAA", "values": [
      {"measurement": "transcriptional activation domain activity", "value": 28700}
    ]},
    {"sequence": "PQSEKSFKSAKNAPEKRAEERPRRRKTCARQNMRTNTNAAHTAHATGAITRRI", "values": [
      {"measurement": "transcriptional activation domain activity", "value": 30100}
    ]},
    {"sequence": "KQYCVRPNSGRIEPGKDVEVQVLLQAMKEDPAPDAKCRDKFLVQSVAVTADKE", "values": [
      {"measurement": "transcriptional activation domain activity", "value": 44600}
    ]},
    {"sequence": "MLFFFCPIYLKLLIFFLCIVRSICQIFVFAYYLHRIYGVVCFSLLFFSKIQLR", "values": [
      {"measurement": "transcriptional activation domain activity", "value": 58200}
    ]},
    {"sequence": "IGVRFDTSIKFINGHLERFLAYLGDPLLKQLCSGEILRRLLLLIIDPPILWND", "values": [
      {"measurement": "transcriptional activation domain activity", "value": 79200}
    ]},
    {"sequence": "TTGGLFGGGAANTGTTGGFGSGGGFGSSTTGGGGLFGNAGNQPKPAGLFGSST", "values": [
      {"measurement": "transcriptional activation domain activity", "value": 27700}
    ]},
    {"sequence": "TGRLQFKWAFVPYILARFVLLGQLLALTLVLRNLQTLIHCGKVLRWLTIVSNV", "values": [
      {"measurement": "transcriptional activation domain activity", "value": 60000}
    ]},
    {"sequence": "MLCFIDLLIFGISLCFLSLLLFLSFFLLFFFFFLVFSEEFVLLHSAAWSFILS", "values": [
      {"measurement": "transcriptional activation domain activity", "value": 41200}
    ]},
    {"sequence": "LVLYHDKFTTYLFAVFFFSLLPHVISSLFFFFFFFFWFLIKCIAMTPQFLFFF", "values": [
      {"measurement": "transcriptional activation domain activity", "value": 34200}
    ]},
    {"sequence": "LVQIVCVAGMHVTLYEQSCLYKCENLKRIITSFHHVNRKVRDAFINLYGKLNP", "values": [
      {"measurement": "transcriptional activation domain activity", "value": 74600}
    ]},
    {"sequence": "PFSFGLFLLYLCSCLTNCMTHIVFCLCSNIQLFFRFWFFYWIDHRPLGFFLAR", "values": [
      {"measurement": "transcriptional activation domain activity", "value": 44700}
    ]},
    {"sequence": "QCAYVLEHCMDATPGIFNYIQLYYCSPVRPLVFVLLCAWLLFLFGFVGIAASD", "values": [
      {"measurement": "transcriptional activation domain activity", "value": 23300}
    ]}
  ]
}
